Target: azurin from Pseudomonas aeruginosa (Pseudomonas aeruginosa) (UniProt P00282)
Assay: SPR equilibrium titration, azurin immobilised on CM5

Chain of azurin from Pseudomonas aeruginosa (Pseudomonas aeruginosa) (P00282 21-148 limits assumed): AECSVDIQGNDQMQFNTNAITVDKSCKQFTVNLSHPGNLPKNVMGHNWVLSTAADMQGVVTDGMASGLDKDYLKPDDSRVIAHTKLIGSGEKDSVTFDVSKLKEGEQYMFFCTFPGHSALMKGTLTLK

Substance: NCAM (from UniProt P13591 20-718) (receptor)
- Kd: 20 nM
